# Measurements taken from US20180118829A1 (JOUNCE THERAPEUTICS, published 2018).
# T1: Mouse PD-1 (monovalent antigen) (mouse, UniProt Q02242 25-167, limits assumed)
# T1 sequence (looked up): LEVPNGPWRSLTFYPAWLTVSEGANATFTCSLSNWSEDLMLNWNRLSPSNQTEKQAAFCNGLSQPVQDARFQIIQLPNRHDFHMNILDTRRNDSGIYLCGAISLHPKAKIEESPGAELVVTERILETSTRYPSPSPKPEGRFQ
# B1: antibody 13406 (antibody, V domains shown)
# VH: QVQLVQSGAEVKKPGASVKVSCKASGYTFDQYYMHWVRQAPGQGLEWMGIINPSGGSTAYAQKFQGRVTMTRDTSTSTVYMELSSLRSEDTAVYYCARGGTYYDYTYWGQGTLVTVSS
# VL: DIQMTQSPSTLSASVGDRVTITCRASQSISSWLAWYQQKPGKAPKLLIYEASSLESGVPSRFSGSGSGTEFTLTISSLQPDDFATYYCQQYNSFPPTFGGGTKVEIK
# B2: antibody 13405 (antibody, V domains shown)
# VH: QVQLVQSGAEVKKPGASVKVSCKASGYTFASYYMGWVRQAPGQGLEWMGIINPAGGSTAYAQKFQGRVTMTRDTSTSTVYMELSSLRSEDTAVYYCARHEYGMDVWGQGTTVTVSS
# VL: DIQMTQSPSTLSASVGDRVTITCRASQSISSWLAWYQQKPGKAPKLLIYEASSLESGVPSRFSGSGSGTEFTLTISSLQPDDFATYYCQQYNSFPPTFGGGTKVEIK
# B3: 13407 Fab (Fab, V domains shown)
# VH: QVQLVQSGAEVKKPGASVKVSCKASGYTFPSYYMHWVRQAPGQGLEWMGIINPEGGSTAYAQKFQGRVTMTRDTSTSTVYMELSSLRSEDTAVYYCARGGTYYDYTYWGQGTLVTVSS
# VL: DIQMTQSPSTLSASVGDRVTITCRASQSISSWLAWYQQKPGKAPKLLIYEASSLESGVPSRFSGSGSGTEFTLTISSLQPDDFATYYCQQYNSFPPTFGGGTKVEIK
# B4: antibody 13408 (antibody, V domains shown)
# VH: QVQLVQSGAEVKKPGASVKVSCKASGYTFSDYYMHWVRQAPGQGLEWMGIINPSGGVTAYAQKFQGRVTMTRDTSTSTVYMELSSLRSEDTAVYYCARGGTYYDYTYWGQGTLVTVSS
# VL: DIQMTQSPSTLSASVGDRVTITCRASQSISSWLAWYQQKPGKAPKLLIYEASSLESGVPSRFSGSGSGTEFTLTISSLQPDDFATYYCQQYNSFPPTFGGGTKVEIK
# B5: antibody 12228 (antibody, V domains shown)
# VH: QVQLVQSGAEVKKPGASVKVSCKASGYTFTSYYMHWVRQAPGQGLEWMGIINPSGGSTSYAQKFQGRVTMTRDTSTSTVYMELSSLRSEDTAVYYCARGGTYYDYTYWGQGTLVTVSS
# VL: DIQMTQSPSTLSASVGDRVTITCRASQSISSWLAWYQQKPGKAPKLLIYEASSLESGVPSRFSGSGSGTEFTLTISSLQPDDFATYYCQQYNSFPPTFGGGTKVEIK
# B6: antibody 13407 (antibody, V domains shown)
# VH: QVQLVQSGAEVKKPGASVKVSCKASGYTFPSYYMHWVRQAPGQGLEWMGIINPEGGSTAYAQKFQGRVTMTRDTSTSTVYMELSSLRSEDTAVYYCARGGTYYDYTYWGQGTLVTVSS
# VL: DIQMTQSPSTLSASVGDRVTITCRASQSISSWLAWYQQKPGKAPKLLIYEASSLESGVPSRFSGSGSGTEFTLTISSLQPDDFATYYCQQYNSFPPTFGGGTKVEIK
# Tests used:
# [1] = target: Human PD-1 (monovalent antigen) (human, UniProt Q15116 25-167, limits assumed); assay: ForteBio BLI, IgG on AHQ sensor, monovalent antigen in solution
# Sequence of Human PD-1 (monovalent antigen) (Q15116 25-167 limits assumed): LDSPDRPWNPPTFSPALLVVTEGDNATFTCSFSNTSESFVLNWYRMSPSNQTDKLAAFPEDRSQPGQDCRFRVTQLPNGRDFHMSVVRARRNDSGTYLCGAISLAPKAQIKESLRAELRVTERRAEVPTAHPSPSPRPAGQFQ
# Procedure: (§1) The affinity of the PD-1 antibodies was determined by measuring their KD by ForteBio or MSD-SET. […] Briefly, ForteBio affinity measurements were performed by loading IgGs on-line onto AHQ sensors. Sensors were equilibrated off-line in assay buffer for 30 min and then monitored on-line for 60 seconds for baseline establishment. Sensors with loaded IgGs were exposed to 100 nM antigen for 5 minutes, afterwards they were transferred to assay buffer for 5 min for off-rate measurement. Kinetics were analyzed using the 1:1 binding model.
# [2] = target: T1, Mouse PD-1 (monovalent antigen); assay: as above
# Procedure: as §1
# [3] = target: T2, Human PD-1 extracellular domain (ECD)-Fc-His6 (human); assay: BLI (ForteBio OctetRED96), PD-1 ECD-Fc-His6 panel; Y = affinity within ~5-fold of WT human PD-1
# T2 construct: also called Human WT PD-1 ECD-Fc fusion
# T2 sequence (chain, as listed by the source limits assumed): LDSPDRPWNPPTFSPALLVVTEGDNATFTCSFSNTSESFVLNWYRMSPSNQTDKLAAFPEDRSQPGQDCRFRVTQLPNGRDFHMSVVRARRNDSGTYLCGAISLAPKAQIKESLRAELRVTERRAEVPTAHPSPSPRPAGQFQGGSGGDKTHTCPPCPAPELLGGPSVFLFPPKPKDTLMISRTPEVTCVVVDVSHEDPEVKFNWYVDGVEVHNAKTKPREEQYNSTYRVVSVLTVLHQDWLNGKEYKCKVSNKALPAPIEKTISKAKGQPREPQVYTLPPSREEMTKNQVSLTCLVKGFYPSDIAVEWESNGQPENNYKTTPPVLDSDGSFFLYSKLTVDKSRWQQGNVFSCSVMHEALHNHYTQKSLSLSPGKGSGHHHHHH
# Procedure: (§2) All protein interactions were assessed on a ForteBio OctetRED96 instrument. Proteins were diluted in kinetics buffer formulation (PBS +0.1% BSA, 0.02% Tween20, 0.05% sodium azide) with a sample volume was 220 μl/well. Ligand concentrations were normalized at 10 μg/ml and analyte concentrations at 100 nM. The blocking reagent was employed at a concentration of 250 μg/ml. Sensor equilibration time was set for 60 sec, and sample loading time established at 300 sec. Human Fc blocking time was set for 300 sec. Analysis of association time was set for 300 sec and dissociation time for 600 sec.
# [4] = target: Human PD-1 D85G ECD-Fc-His6 (human); assay: as above
# Sequence of Human PD-1 D85G ECD-Fc-His6 (human) (chain, as listed by the source D85G D85G limits assumed): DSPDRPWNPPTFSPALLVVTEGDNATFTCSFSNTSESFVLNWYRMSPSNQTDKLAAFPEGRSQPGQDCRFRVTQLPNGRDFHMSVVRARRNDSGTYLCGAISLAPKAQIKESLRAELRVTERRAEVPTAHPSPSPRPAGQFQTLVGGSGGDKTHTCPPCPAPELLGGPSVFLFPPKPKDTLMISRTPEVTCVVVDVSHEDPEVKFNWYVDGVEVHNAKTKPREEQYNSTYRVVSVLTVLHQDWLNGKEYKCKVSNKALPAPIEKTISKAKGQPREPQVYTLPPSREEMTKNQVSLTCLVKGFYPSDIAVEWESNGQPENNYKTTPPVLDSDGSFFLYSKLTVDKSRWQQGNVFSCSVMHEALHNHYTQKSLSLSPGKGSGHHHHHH
# Procedure: as §2
# [5] = target: Human PD-1 R86L ECD-Fc-His6 (human); assay: as above
# Sequence of Human PD-1 R86L ECD-Fc-His6 (human) (chain, as listed by the source R86L R86L limits assumed): as the sequence (chain, as listed by the source D85G D85G limits assumed) above, with G60D, R61L counted along it
# Procedure: as §2
# [6] = target: Human PD-1 D85G/R86L ECD-Fc-His6 (human); assay: as above
# Sequence of Human PD-1 D85G/R86L ECD-Fc-His6 (human) (chain, as listed by the source D85G R86L D85G R86L limits assumed): as the sequence (chain, as listed by the source D85G D85G limits assumed) above, with R61L counted along it
# Procedure: as §2
# [7] = target: T3, Human PD-1 N33-Q167 ECD-Fc-His6 (human); assay: as above
# T3 construct: also called N-terminal truncated variant N33-Q167
# T3 sequence (chain, as listed by the source limits assumed): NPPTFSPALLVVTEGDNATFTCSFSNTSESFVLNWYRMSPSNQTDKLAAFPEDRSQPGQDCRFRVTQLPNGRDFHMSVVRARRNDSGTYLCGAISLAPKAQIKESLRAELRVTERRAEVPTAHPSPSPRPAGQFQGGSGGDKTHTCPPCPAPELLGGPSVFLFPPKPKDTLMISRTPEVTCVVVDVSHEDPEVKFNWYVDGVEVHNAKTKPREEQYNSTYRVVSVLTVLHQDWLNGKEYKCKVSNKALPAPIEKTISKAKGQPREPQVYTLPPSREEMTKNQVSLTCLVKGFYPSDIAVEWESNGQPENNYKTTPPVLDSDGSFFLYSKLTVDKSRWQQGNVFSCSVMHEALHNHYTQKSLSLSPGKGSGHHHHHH
# Procedure: as §2
# [8] = target: Human PD-1 K78A ECD-Fc-His6 (human); assay: as above
# Sequence of Human PD-1 K78A ECD-Fc-His6 (human) (chain, as listed by the source K78A K78A limits assumed): as the sequence (chain, as listed by the source D85G D85G limits assumed) above, with K53A, G60D counted along it
# Procedure: as §2
# Mouse PD-1 ECD-Fc-His6 = target: T4, Mouse PD-1 ECD-Fc-His6 (mouse); assay: as above
# T4 construct: also called Mouse WT PD-1 ECD-Fc fusion
# Procedure: as §2
# [9] = target: Rat P129H PD-1 ECD-Fc-His6 (rat); assay: as above
# Sequence of Rat P129H PD-1 ECD-Fc-His6 (rat) (chain, as listed by the source P129H P129H limits assumed): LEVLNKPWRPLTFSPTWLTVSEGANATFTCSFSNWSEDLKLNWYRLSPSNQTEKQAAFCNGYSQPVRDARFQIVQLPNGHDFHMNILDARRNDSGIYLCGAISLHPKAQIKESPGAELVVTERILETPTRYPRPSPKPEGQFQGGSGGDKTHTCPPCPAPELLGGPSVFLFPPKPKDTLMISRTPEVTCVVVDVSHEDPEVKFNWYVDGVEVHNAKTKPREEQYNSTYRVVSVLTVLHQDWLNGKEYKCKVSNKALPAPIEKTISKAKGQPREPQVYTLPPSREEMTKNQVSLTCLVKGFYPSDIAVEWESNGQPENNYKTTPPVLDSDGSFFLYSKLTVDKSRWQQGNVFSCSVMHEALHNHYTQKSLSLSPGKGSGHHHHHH
# Procedure: as §2
# [10] = target: T5, Cynomolgus monkey PD-1 ECD-Fc-His6 (cynomolgus monkey); assay: as above
# T5 construct: also called Cyno WT PD-1 ECD-Fc fusion
# T5 sequence (chain, as listed by the source limits assumed): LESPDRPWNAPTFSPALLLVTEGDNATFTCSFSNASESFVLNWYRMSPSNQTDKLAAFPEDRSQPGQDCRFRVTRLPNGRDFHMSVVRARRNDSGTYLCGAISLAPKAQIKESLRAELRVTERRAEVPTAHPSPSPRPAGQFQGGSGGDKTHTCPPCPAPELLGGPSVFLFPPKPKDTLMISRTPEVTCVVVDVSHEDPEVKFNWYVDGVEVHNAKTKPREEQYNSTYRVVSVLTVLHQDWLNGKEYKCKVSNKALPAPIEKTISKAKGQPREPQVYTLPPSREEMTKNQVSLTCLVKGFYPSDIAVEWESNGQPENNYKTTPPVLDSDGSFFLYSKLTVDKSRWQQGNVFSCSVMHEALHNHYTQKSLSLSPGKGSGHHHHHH
# Procedure: as §2
# [11] = target: Human PD-1 I126A ECD-Fc-His6 (human); assay: BLI (ForteBio OctetRED96), PD-1 ECD-Fc-His6 panel; Reduced = affinity reduced >10-fold and <100-fold vs WT human PD-1
# Sequence of Human PD-1 I126A ECD-Fc-His6 (human) (chain, as listed by the source I126A I126A limits assumed): as the sequence (chain, as listed by the source D85G D85G limits assumed) above, with G60D, I101A counted along it
# Procedure: as §2
# [12] = target: Human PD-1 L128A ECD-Fc-His6 (human); assay: as above
# Sequence of Human PD-1 L128A ECD-Fc-His6 (human) (chain, as listed by the source L128A L128A limits assumed): as the sequence (chain, as listed by the source D85G D85G limits assumed) above, with G60D, L103A counted along it
# Procedure: as §2
binder,measurement,setting,value
B1,Kd,[1],3.2 nM
same,Kd,[2],3.5 nM
B2,Kd,[1],73 nM
same,Kd,[2],7.2 nM
B3,binding result,[3],binds
same,binding result,[4],binds
same,binding result,[5],binds
same,binding result,[6],binds
same,binding result,[7],binds
same,binding result,[8],binds
same,binding result,Mouse PD-1 ECD-Fc-His6,binds
same,binding result,[9],binds
same,binding result,[10],binds
same,binding result,[11],binds
same,binding result,[12],binds
B4,Kd,[1],1.2 nM
same,Kd,[2],5.3 nM
B5,Kd,[1],49 nM
same,Kd,[2],6.3 nM
B6,Kd,[1],3.9 nM
same,Kd,[2],3.2 nM
